Experimental data taken from the domain aggregation screens of Martell et al. (2025).

Assay: soluble fraction after stress (log2 fold change); higher = more stays soluble; pooled small domains, quantitative proteomics
Details: stress: pH 4
Outline: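 After pH 4 stress, pooled custom libraries of small protein domains were quantified with high-throughput quantitative proteomics. Aggregation propensity is taken from the fold change in each domain's soluble amount following the acid stress. The scale is log2, where higher values mean more stayed soluble.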

Row | Sequence | soluble fraction (log2)
1 | HMDSESGAIIRRAVAQLAPKFRSTIVLRLIEGYSTEETAQILQLPVGTVLSRLARAKVQLMNLLTPYKEL | -0.0277
2 | HMETGEDSLRRYFNSLPGSASKREILEDNPTVSQRTTERILQKLQAEGFIEKVGAARATRYRKVKQ | 0.27
3 | HMTPIELIEKTIELIENERKVQKLQQKELALKADIPFPTYKDFIYKKRASLENILKLFIALRLF | -0.88
4 | HMRWSDQKEIVTLSLDHVLVEKGRKTKEYSWREFRTFTAFEIKKSSKDQINLGFKSKGNTVIIGNF | -0.438
5 | HMEPEAKIDFILKAAQKRLGLYGYEKTTMQEIAADINMSKAALYYYFPDKESLFKAVVENEQEEYFH | -1.24
6 | HMGIDVSAFSDTALEVLRLQAAGYTTREIAQQLHITQRTVKYHASENYRKLDARNLVDAVQIAQSLHI | -0.602
7 | HMESPLEQLTNRELQTLQMLGKGLSTKQIAAQLNLSVKTVETYRENLKRKLNLDSGSELIRYAIHRSNE | -0.0124
8 | HMTGREIDQLFSVVNDLKAKGVGMVFISHHLDEIARIADSVSVLRDGGFVAEVPASTPEKKLVTLMVGRDI | -0.369
9 | HMQAVKQIKVERGMTLEKIAQSEFGDSTRWGEIVEVNNLRAPYISDDPTETRDGVLKPGSNLLIPIP | -0.825
10 | HMLDTELEANLRSQRDQKLVEELDPIVTNPLRWAELTSDKQTEWTQYRTDLLNVPQQSGFPTNVTWPEKP | -0.401
11 | HMNIKYDFPTNSPLEMMRNLFDSNSQIINDLKDGFAMANSLNEQGLANFFAERIDKHQFWSWQLSASL | 0.177
12 | HMEKDEYIFVDIDGAVFNPGVYKLIAGSRVIDAINLAGGLKEKAFTQNLNKARKLVDGEKIYIYLEGDEE | -1.23
13 | HMSVFGMEIGKTTEAEAGRMYRLNKEQLNPYSGGYQYSVNPKAIDFSGLEQVTLIFDEKKVLVYVQAV | -0.179
14 | HMEKEEELNSIRPDLDGNDIMEILGVPAGPKVGKAYNYLLNVRLDEGPLSRAEAISRLEAWWENQ | -1.22
15 | HMKDRDISNAVLNILSKDSDHNYNYKQIASVLGVKDPFVRKRIVSVLAQLTKNGQLEEISRGKYQIKN | -0.694
16 | HMEAYMVPNVKNKTLNEAQQALSNQKLKGLVIDSSYVKGVPDGMVLDQNPAGGARVKEGRTIYLTVTTS | 0.259
17 | HMDKQEKIHKKKIIILEALKRLLQNDVYSRITVQAVADEAGFSKGGLLHYFPTKEEMYIEFMEY | 0.092
18 | HMISFHEYLTQLLDEKGLTKAQVITDSNIQKNYGYQIFDGSKTPSRDKVIAIALAMQLTLDEANRLLHLSN | -0.618
19 | HMGAYPENSLLKERGQSAVYLIQENRKRLFFNAEAFLINGYNWKDIQVVDDLSKILTGKVIYAK | -1.48
20 | HMKKAMIISTKRGTPAAELDKIIREFEAKGLSVTMIRGTDYNVFGLVGDTTVIDEKQVRANPYVENVQRV | -0.325
21 | HMNEYIVSAEQEGMRLDVFLTEQMEGSRSYIQSLIKGGHVTVGDKVGKANLRLTPDTVIHVEIPEPE | -0.166
22 | HMEYTVNRLAQISGVSKRTLRYYDEIGLLRPERVNPNGYRIYGQMQVDLLQQILFYRELGLPLEEIREII | -0.639
23 | HMPKMDGLTVMEQVNQDHFVNKRPYFIVITAVGQEKITEDAFNKGANYYVMKPFNNNMLLERIKSVRK | 0.0916
24 | HMTGGIWVQIQGAVERPGVYSLPRDSRLKDLLEAAGGFGRDADTEKVNQAARLEDGAMYRVPRQGEG | 0.164
25 | HMVPTYEAYVGKEGLVVGTLRPAGTAEFDGERLDVVSEGEYLEAGTRVQIVRTEGRRIVVRKIN | -0.233
26 | HMQETIDVAALRVGMFVHLDLGWLAHPFPLSSFRISSEDQISTIRALGLKRVRWSSQHSELG | -1.27
27 | HMDSSITLMRMYIPKGHNWENKLISDVSMPTNSLALMIKRNGTTIIPKGDTMILAKDTLILSVPSYEPS | -1.86
28 | HMNTKLSYSDLIEKIEAGQVEKVELDAGGSSAIVKLKNDNIEKRVNVPSIDNLMENLQDNMKTGNISVTE | -0.202

Row | Sequence | soluble fraction (log2)
29 | HMIVEIVPSALHGERVDRIVAFILDVSRSVASGLVERGAVHVDGSVETSGKVRLVEGQEVSVDPSQVPG | -0.528
30 | HMDFIEYIISEESKGLRADQAISMENDKFSRSLIQKWIKKGRVLVNGRKIKPKDIVNLNDKITINPEESIN | -0.597
31 | HMKPQKRYLFEEVLTFLKHNSEKSFNYKQLGAAMEISNESDRFTLLETLEELKHQGFVVEKEIGKYQAKE | 0.37
32 | HMGRFPSLTPVVIDALTAQYREHPGWTVQLHVDNLRVVLAANQTPLPSYPTIRRYLLAQGMRRQTRP | -0.176
33 | HMARKFQKDTGYLNKKERTWLLDFFPSLKKYLYTGAYIRSIIVVESNVTYTDKELPSNYTFTYKFA | 0.176
34 | HMRMYDVNEYSDEELHRILDLSSPTDSELEARILQMIQKYKYTNGGDNEKMAVFFENIYHHFFD | -1.54
35 | HMSDSLVLTGVAYVDGKPVVTLFDKVKKESLVVTDQPNLKGWTLVEATQSSDIKRATAKVNIGGEPVSIRY | -0.162
36 | HMQIKEVDYGTFISMTEDGEIGRVEIQQQENTILFTDEDETAVYKTAMVEDDQLTQRLYDAGISFYGEE | -0.784
37 | HMNSTSGIAGVGYWINQYRKKKGMSPVDKKSPLVRRVYDWVQEQYDEGRITIISDAELTRQTELAMEA | 0.0383
38 | HMANPFQELTERELDVLRQVAAGKNNREIAEALFIGEKTVKTHISNILSKLHLADRTQAAVYAWQQGMM | -1.14
39 | HMTSSKISFIDPVNGGKVSVSLENSTLEKLQNRFGVNSVVRNEAGDVELKDKAQEFVAGWFADIAYTRG | -0.89
40 | HMIDAAHLEKAILSLPEGARAVFVLIETEGFAHREVAELLGISEGTSKSQLNYAKKRLREILV | -0.0621
41 | HMDSPRITMDQLRIGLYVYLDLTWFQHPFAFSHFKINSEDQIKTILGLGLKSVRYDPALSDPV | -0.645
42 | HMKEVKRDQVIEAARKLFHQFGFKKVSMDEIAKEAGVTKKTIYMYFESKEELLKYFIQEEISN | -0.44
43 | HMAVPAALVQAWLELSRRMVAGTQDVGERFAEEARKMHYGETEDRGIRGQATLTEVRDLLDEGIEVLPLLL | -0.725
44 | HMFDFGNHLRMLREKHGISQEELGRRVGRAGSVISNYENNIKIPTLDVLTTMARIYDVSLDYLVG | -1.06
45 | HMRIASANAIYDELLNKRDDAKLAELKQEDINLYALYILQNGSADERAALENTQGIDVVLKEIINLQNG | -0.416
46 | HMTVGEKIQKYRKDLDLSQEELGQKLLVSRQTISLWEKDQTVPTIDNLIRLREIFGVSVDEILGF | -1.69
47 | HMKQVEVESVIGKSEEAANSILTKAGLKVNIGYKEDSSKPTDTVLSQDPAPGEKVDEGTTVTIVVNNYKKP | -0.127
48 | HMENLSFNINSEEEGQRIDKYLSVMIEGKSRSFVQGLIEEKKVKANSKVIKSNYKLKKGDFIEVEVPEPV | 0.36
49 | HMHDEKHHQLANEIARKWAALRGNRDFAAADELKNLAAEAGVELQATKQAVGQGALAKLKENFDPVKLEAL | 0.22
50 | HMNENFPYRLKEMVVVQSRTWPGINKPGGVGQVMKINPEAGTVNVKYVLGGSEKNIELKYVTSNDLNSK | 0.063
51 | HMGFSKGKRDLIRMIKLAIRELADDNGRAQIEDVITRLVQEGHSRDEIRLQIDMFLRQGEAMEPKQGIIKL | -0.891
52 | HMNDAEEKAEAIEGVKNFMANMEKTDIDFKSKESVLLEQVEEIRKNYPVAQWPVIVKQLYNNIGRL | -0.257
53 | HMDEAEELYQAVQALKPKYREVILLHYYQGLRVGEIAAILRAPQSTVSIRLRRARQMLNRMLG | -0.0788
54 | HMVDTEVFSRLLRKVLAGDVTSAIRILEELIVGGRELSQFVGDFTWYMRNLLLVKTSDNPEEA | -0.116
55 | HMLLQENRKLHSKLEELQLISRAKAVLIEYLKLTEPQAHRYIEKQAMDLGLTRPQVALNILKTYE | 0.21
